Test results: patent publication US20220332795A1

Target: human serum albumin (human) (UniProt P02768)
Test: solution ELISA screen (luminescence)

human serum albumin (human), sequence (P02768 25-609 limits assumed): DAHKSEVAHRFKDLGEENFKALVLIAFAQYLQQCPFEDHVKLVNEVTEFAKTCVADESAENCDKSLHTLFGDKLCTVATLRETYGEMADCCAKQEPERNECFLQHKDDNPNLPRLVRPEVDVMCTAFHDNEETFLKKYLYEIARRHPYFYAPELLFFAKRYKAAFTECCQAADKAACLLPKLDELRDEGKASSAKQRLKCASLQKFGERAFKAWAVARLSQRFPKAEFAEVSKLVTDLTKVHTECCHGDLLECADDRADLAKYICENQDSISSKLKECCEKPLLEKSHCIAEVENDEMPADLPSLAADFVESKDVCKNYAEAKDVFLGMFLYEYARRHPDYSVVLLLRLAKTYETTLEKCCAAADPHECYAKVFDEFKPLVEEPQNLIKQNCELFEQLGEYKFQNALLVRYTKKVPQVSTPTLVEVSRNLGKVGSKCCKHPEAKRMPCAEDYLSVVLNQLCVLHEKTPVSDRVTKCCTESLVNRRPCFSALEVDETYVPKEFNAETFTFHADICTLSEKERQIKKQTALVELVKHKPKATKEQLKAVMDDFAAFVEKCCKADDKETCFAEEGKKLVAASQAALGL

Row | Binder | RLU
1 | SEQ ID NO 221 (designed binder, not shown: small tags and cut ends) MLPAPKNLVVSRVTEDSARLSWTAPDAAFDSFFIGYLEPQPPGEAIFLDVPGSERSYDLTGLKPGTEYNVTIQGVKGGFPSPLTAFFTT | 59000 RLU
2 | SEQ ID NO 260 (designed binder, not shown: small tags and cut ends) MLPAPKNLVVSRVTEDSARLSWTAPDAAFDSFYIAYAEPRPDGEAIHLRVPGSERSYDLTGLKPGTEYNVTIQGVKGGFPSMPLSAIFTT | 33400 RLU
3 | SEQ ID NO 227 (designed binder, not shown: small tags and cut ends) MLPAPKNLVVSRVTEDSARLSWTAPDAAFDSFYIAYAEPRPDGEAIGLRVPGSERSYDLTGLKPGTEYSVLIHGVKGGLLSSPLSAIFTT | 28200 RLU
4 | SEQ ID NO 215 (designed binder, not shown: small tags and cut ends) MLPAPKNLVVSRVTEDSARLSWTAPDAAFDSFYIAYAEPRPDGEAIVLWVPGSERSYDLTGLKPGTEYSVLIHGVKGGLLSSPLIAEFTT | 22400 RLU
5 | SEQ ID NO 207 (designed binder, not shown: small tags and cut ends) MLPAPKNLVVSRVTEDSARLSWTAPDAAFDSFYIAYAEPRPDGEAIHLSVPGSERSYDLTGLKPGTEYSVLIHGVKGGLLSSPLAAYFTT | 121000 RLU
6 | SEQ ID NO 224 (designed binder, not shown: small tags and cut ends) MLPAPKNLVVSRVTEDSARLSWTAPDAAFDSFYIAYAEPRPDGEAILLRVPGSERSYDLTGLKPGTEYSVLIHGVKGGLLSSPLVAEFTT | 26200 RLU
7 | SEQ ID NO 225 (designed binder, not shown: small tags and cut ends) MLPAPKNLVVSRVTEDSARLSWTAPDAAFDSFYIAYAEPRPDGEAILLQVPGSERSYDLTGLKPGTEYSVLIHGVKGGLLSSPLSASFTT | 17000 RLU
8 | SEQ ID NO 214 (designed binder, not shown: small tags and cut ends) MLPAPKNLVVSRVTEDSARLSWTAPDAAFDSFYIAYAEPRPDGEAIGLQVPGSERSYDLTGLKPGTEYSVLIHGVKGGLLSSPLCAEFTT | 30200 RLU
9 | SEQ ID NO 219 (designed binder, not shown: small tags and cut ends) MLPAPKNLVVSRVTEDSARLSWTAPDAAFDSFYIAYAEPRPDGEAISLKVPGSERSYDLTGLKPGTEYSVLIHGVKGGLLSSPLEAIFTT | 11800 RLU
10 | SEQ ID NO 228 (designed binder, not shown: small tags and cut ends) MLPAPKNLVVSRVTEDSARLSWTAPDAAFDSFYIAYAEPRPDGEAIVLRVPGSERSYDLTGLKPGTEYSVLIHGVKGGLLSSPLAASFTT | 29600 RLU
11 | SEQ ID NO 218 (designed binder, not shown: small tags and cut ends) MLPAPKNLVVSRVTEDSARLSWTAPDAAFDSFYIAYAEPRPDGEAIHLVVPGSERSYDLTGLKPGTEYSVLIHGVKGGLLSSPLSAIFTT | 14100 RLU
12 | SEQ ID NO 210 (designed binder, not shown: small tags and cut ends) MLPAPKNLVVSRVTEDSARLSWTAPDAAFDSFFIGYLEPQPPGEAINLQVPGSERSYDLTGLKPGTEYNVTIQGVKGGFPSFPLSAVFTT | 48600 RLU
13 | SEQ ID NO 233 (designed binder, not shown: small tags and cut ends) MLPAPKNLVVSRVTEDSARLSWTAPDAAFDSFYIAYAEPRPDGEAIQLFVPGSERSYDLTGLKPGTEYSVLIHGVKGGLLSSPLKAYFTT | 22000 RLU
14 | SEQ ID NO 203 (designed binder, not shown: small tags and cut ends) MLPAPKNLVVSRVTEDSARLSWTAPDAAFDSFFIGYLEPQPPGEAIVLLVPGSERSYDLTGLKPGTEYNVTIQGVKGGFPSVPLAAFFTT | 26000 RLU
15 | SEQ ID NO 269 (designed binder, not shown: small tags and cut ends) MLPAPKNLVVSRVTEDSARLSWTAPDAAFDSFYIAYAEPRPDGEAIWLDVPGSERSYDLTGLKPGTEYSVLIHGVKGGLLSSPLDAYFTT | 19900 RLU
16 | SEQ ID NO 267 (designed binder, not shown: small tags and cut ends) MLPAPKNLVVSRVTEDSARLSWTAPDAAFDSFYIAYAEPRPDGEAIGLWVPGSERSYDLTGLKPGTEYSVLIHGVKGGLLSSPLVAYFTT | 29800 RLU
17 | SEQ ID NO 265 (designed binder, not shown: small tags and cut ends) MLPAPKNLVVSRVTEDSARLSWTAPDAAFDSFYIAYAEPRPDGEAIVLEVPGSERSYDLTGLKPGTEYSVLIHGVKGGLLSSPLTASFTT | 30700 RLU
18 | SEQ ID NO 261 (designed binder, not shown: small tags and cut ends) MLPAPKNLVVSRVTEDSARLSWTAPDAAFDSFYIAYAEPRPDGEAILLQVPGSERSYDLTGLKPGTEYSVLIHGVKGGLLSSPLIAKFTT | 174000 RLU
19 | SEQ ID NO 266 (designed binder, not shown: small tags and cut ends) MLPAPKNLVVSRVTEDSARLSWTAPDAAFDSFYIAYAEPRPDGEAIRLQVPGSERSYDLTGLKPGTEYSVLIHGVKGGLLSSPLGASFTT | 36200 RLU
20 | SEQ ID NO 212 (designed binder, not shown: small tags and cut ends) MLPAPKNLVVSRVTEDSARLSWTAPDAAFDSFYIAYAEPRPDGEAIWLAVPGSERSYDLTGLKPGTEYSVLIHGVKGGLLSSPLHAQFTT | 17400 RLU
21 | SEQ ID NO 231 (designed binder, not shown: small tags and cut ends) MLPAPKNLVVSRVTEDSARLSWTAPDAAFDSFFIGYLEPQPPGEAIHLYVPGSERSYDLTGLKPGTEYNVTIQGVKGGFPSDPLDAVFTT | 20600 RLU

Row | Binder | RLU
22 | SEQ ID NO 211 (designed binder, not shown: small tags and cut ends) MLPAPKNLVVSRVTEDSARLSWTAPDAAFDSFYIAYAEPRPDGEAIQLHVPGSERSYDLTGLKPGTEYSVLIHGVKGGLLSSPLVAIFTT | 13000 RLU
23 | SEQ ID NO 206 (designed binder, not shown: small tags and cut ends) MLPAPKNLVVSRVTEDSARLSWTAPDAAFDSFYIAYAEPRPDGEAIGLDVPGSERSYDLTGLKPGTEYSVLIHGVKGGLLSSPLSAIFTT | 14000 RLU
24 | SEQ ID NO 217 (designed binder, not shown: small tags and cut ends) MLPAPKNLVVSRVTEDSARLSWTAPDAAFDSFYIAYAEPRPDGEAIILEVPGSERSYDLTGLKPGTEYSVLIHGVKGGLLSSPLRAVFTT | 16200 RLU
25 | SEQ ID NO 230 (designed binder, not shown: small tags and cut ends) MLPAPKNLVVSRVTEDSARLSWTAPDAAFDSFYIAYAEPRPDGEAIWLLVPGSERSYDLTGLKPGTEYSVLIHGVKGGLLSSPLVAFFTT | 32000 RLU
26 | SEQ ID NO 226 (designed binder, not shown: small tags and cut ends) MLPAPKNLVVSRVTEDSARLSWTAPDAAFDSFYIAYAEPRPDGEAIGLHVPGSERSYDLTGLKPGTEYSVLIHGVKGGLLSSPLTASFTT | 16000 RLU
27 | SEQ ID NO 229 (designed binder, not shown: small tags and cut ends) MLPAPKNLVVSRVTEDSARLSWTAPDAAFDSFYIAYAEPRPDGEAIQLLVPGSERSYDLTGLKPGTEYSVLIHGVKGGLLSSPLVAHFTT | 15400 RLU
28 | SEQ ID NO 223 (designed binder, not shown: small tags and cut ends) MLPAPKNLVVSRVTEDSARLSWTAPDAAFDSFFIGYLEPQPPGEAIGLAVPGSERSYDLTGLKPGTEYNVTIQGVKGGFPSVPLQANFTT | 18300 RLU
29 | SEQ ID NO 263 (designed binder, not shown: small tags and cut ends) MLPAPKNLVVSRVTEDSARLSWTAPDAAFDSFYIAYAEPRPDGEAIALVVPGSERSYDLTGLKPGTEYSVLIHGVKGGLLSSPLAANFTT | 23800 RLU
30 | SEQ ID NO 209 (designed binder, not shown: small tags and cut ends) MLPAPKNLVVSRVTEDSARLSWTAPDAAFDSFYIAYAEPRPDGEAILLQVPGSCRSYDLTGLKPGTEYSVLIHGVKGGLLSSPLTAIFTT | 17800 RLU
31 | SEQ ID NO 262 (designed binder, not shown: small tags and cut ends) MLPAPKNLVVSRVTEDSARLSWTAPDAAFDSFYIAYAEPRPDGEAIVLHVPGSERSYDLTGLKPGTEYSVLIHGVKGGLLSSPLQAIFTT | 30900 RLU
32 | SEQ ID NO 208 (designed binder, not shown: small tags and cut ends) MLPAPKNLVVSRVTEDSARLSWTAPDAAFDSFFIGYLEPQPPGEAIVLAVPGSERSYDLTGLKPGTEYNVTIQGVKGGFPSYPLVAAFTT | 16400 RLU
33 | SEQ ID NO 264 (designed binder, not shown: small tags and cut ends) MLPAPKNLVVSRVTEDSARLSWTAPDAAFDSFYIAYAEPRPDGEAINLSVPGSERSYDLTGLKPGTEYSVLIHGVKGGLLSSPLDAYFTT | 24400 RLU
34 | SEQ ID NO 222 (designed binder, not shown: small tags and cut ends) MLPAPKNLVVSRVTEDSARLSWTAPDAAFDSFFIGYLEPQPPGEAIVLDVPGSERSYDLTGLKPGTEYNVTIQGVKGGFPSHPLAAAFTT | 15600 RLU
35 | SEQ ID NO 268 (designed binder, not shown: small tags and cut ends) MLPAPKNLVVSRVTEDSARLSWTAPDAAFDSFYIAYAEPRPDGEAIYLEVPGSERSYDLTGLKPGTEYSVLIHGVKGGLLSSPLFTT | 117000 RLU
36 | SEQ ID NO 213 (designed binder, not shown: small tags and cut ends) MLPAPKNLVVSRVTEDSARLSWTAPDAAFDSFYIAYAEPRPDGEAILLGVPGSERSYDLTGLKPGTEYSVLIHGVKGGLLSSPLFTT | 70300 RLU
37 | SEQ ID NO 216 (designed binder, not shown: small tags and cut ends) MLPAPKNLVVSRVTEDSARLSWTAPDAAFDSFYIAYAEPRPDGEAISLSVPGSERSYDLTGLKPGTEYSVLIHGVKGGLLSSPPKFTT | 192000 RLU
38 | SEQ ID NO 205 (designed binder, not shown: small tags and cut ends) MLPAPKNLVVSRVTEDSARLSWTAPDAAFDSFFIGYLEPQPPGEAILLGVPGSERSYDLTGLKPGTEYNVTIQGVKGGFPSMPLHPLVALFTT | 155000 RLU
39 | SEQ ID NO 270 (designed binder, not shown: small tags and cut ends) MLPAPKNLVVSRVTEDSARLSWTAPDAAFDSFAIEYCETKMCGEAIVLTVPGSERSYDLTGLKPGTEYRVPIPGVKGGTASLPLSAIFTT | 64400 RLU
40 | SEQ ID NO 204 (designed binder, not shown: small tags and cut ends) MLPAPKNLVVSRVTEDSARLSWTAPDAAFDSFFIGYLEPQPPGEAILLWVPGSERSYDLTGLKPGTEYNVTIQGVKGGFPSQFTT | 20000 RLU
41 | SEQ ID NO 232 (designed binder, not shown: small tags and cut ends) MLPAPKNLVVSRVTEDSARLSWTAPDAAFDSFFIGYLEPQPPGEAIYLDVPGSERSYDLTGLKPGTEYNVTIQGVKGGFPSTFTT | 75400 RLU
